T1: cyno CD79b (TAHO40) (cynomolgus monkey)
T1 construct: Target on BJAB-cyno CD79b cells (BJAB transfected with cyno CD79b) and on cynomolgus B cells; also called cynomolgus CD79b; PRO283627
T1 chain: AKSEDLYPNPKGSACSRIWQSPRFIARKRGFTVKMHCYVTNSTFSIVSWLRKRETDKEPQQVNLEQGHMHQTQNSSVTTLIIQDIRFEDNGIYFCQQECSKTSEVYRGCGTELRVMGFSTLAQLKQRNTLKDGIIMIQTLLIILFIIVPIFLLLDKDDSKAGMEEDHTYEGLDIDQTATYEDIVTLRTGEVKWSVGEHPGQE

T2: cyno CD79b (TAHO40) 21mer peptide (cynomolgus monkey)
T2 construct: also called cyno CD79b (TAHO40) 20 mer peptides
T2 peptide: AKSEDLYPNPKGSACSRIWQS

T3: rhesus CD79b (rhesus monkey, UniProt H9ZFT8 30-231)
T3 construct: whole, on cells; also called rhesus monkey CD79b
T3 sequence: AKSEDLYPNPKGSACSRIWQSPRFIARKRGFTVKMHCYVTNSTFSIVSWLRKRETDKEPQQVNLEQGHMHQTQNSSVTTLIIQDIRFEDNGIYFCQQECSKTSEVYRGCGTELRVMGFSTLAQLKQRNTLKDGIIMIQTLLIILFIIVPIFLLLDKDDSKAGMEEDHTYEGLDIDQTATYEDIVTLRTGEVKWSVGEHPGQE

T4: human CD79b (TAHO5) (human, UniProt P40259 29-229)
T4 construct: also called PRO36249; Igbeta
T4 sequence: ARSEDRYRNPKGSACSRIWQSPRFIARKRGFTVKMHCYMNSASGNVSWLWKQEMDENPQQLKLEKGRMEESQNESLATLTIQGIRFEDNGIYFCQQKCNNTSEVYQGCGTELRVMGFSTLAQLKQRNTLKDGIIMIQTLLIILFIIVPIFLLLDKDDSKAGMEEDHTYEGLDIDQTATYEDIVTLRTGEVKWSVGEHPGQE

T5: human CD79b (TAHO5) 21mer peptide (human)
T5 peptide: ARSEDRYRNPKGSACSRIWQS


Legend:
[1] = biological target: T1, cyno CD79b (TAHO40); assay: staining of cynomolgus monkey B cells; method not detailed
[2] = biological target: T2, cyno CD79b (TAHO40) 21mer peptide; assay: peptide competition: antibody pre-incubated with the cyno peptide, then FACS staining of BJAB cells
[3] = biological target: T3, rhesus CD79b; assay: staining of rhesus monkey B cells; method not detailed
[4] = biological target: T4, human CD79b (TAHO5); assay: Scatchard analysis on BJAB-cyno CD79b cells (which also express human CD79b)
[5] = biological target: T1, cyno CD79b (TAHO40); assay: Scatchard analysis on BJAB-cyno CD79b cells
[6] = biological target: T5, human CD79b (TAHO5) 21mer peptide; assay: peptide competition: antibody pre-incubated with the human 21mer peptide, then FACS staining of cells

binding result [1] | binding result [3] | Kd [4] | Kd [5] | Binder | binding result [2] | binding result [6]
no binding | no binding | 0.5 nM | – | anti-human CD79b (TAHO5) antibody SN8 (antibody, V domains shown, Murine monoclonal antibody, commercial (Biomeda, BD, Ancell) or from the Roswell Park hybridoma; also called anti-human CD79b (SN8)) VL: DIVLTQSPASLAVSLGQRATISCKASQSVDYDGDSFLNWYQQKPGQPPKLFIYAASNLESGIPARFSGSGSGTDFTLNIHPVEEEDAATYYCQQSNEDPLTFGAGTELELKR VH: EVQLQQSGAELMKPGASVKISCKATGYTFSSYWIEWVKQRPGHGLEWIGEILPGGGDTNYNEIFKGKATFTADTSSNTAYMQLSSLTSEDSAVYYCTRRVPVYFDYWGQGTSVTVSS | no binding (tested: antibody:peptide 1:10) | –
– | – | – | 1 nM | anti-cyno-CD79b-10D10 (antibody, V domains shown, Murine hybridoma monoclonal antibody; also called 10D10.3; ATCC PTA-7715) VH: EVQLQESGPGLVKPSQSLSLTCTVTGYSITSDYAWNWIRQFPGNKLEWMGNIWYSGSTTYNPSLKSRISITRDTSKNQFFLQLNSVTSEDTATYYCSRMDFWGQGTTLTVSS VL: DIVLTQSPPSLAVSLGQRATISCRASESVDSYGKTFMHWHQQKPGQPPKLLIYRVSNLESGIPARFSGSGSRTDFTLTINPVEADDVATYYCQQSNEDPFTFGGGTKLEIKR | – | no binding (tested: antibody:peptide 1:10)
no binding | no binding | – | – | anti-human-CD79b-2F2 (antibody, V domains shown, Murine hybridoma monoclonal antibody; also called 2F2.20.1; anti-human CD79b (TAHO5) (2F2)) VH: QVQLQQPGAELVRPGASVKLSCKASGYTFTSYWMNWVKQRPGQGLEWIGMIDPSDSETHYNHIFKDKATLTVDKSSSTAYLQLSSLTSEDSAVYYCARNLYLWGQGTSVTVSL VL: not shown | no binding (tested: antibody:peptide 1:10) | –

Source: patent US20110070243A1 (published 2011)
